Measurements reported in paper PMC5454376 (2017).

B1: Human His-Gαi3 WT [human] / Fluorescein-labelled GIV peptide (residues 1,671–1,701) [modified: 5,6-carboxyfluorescein coupled to the resin-bound peptide after chain elongation; 5,6-carboxyfluorescein coupled to the resin-bound peptide … (parent complex)
chain 1: MGCTLSAEDKAAVERSKMIDRNLREDGEKAAKEVKLLLLGAGESGKSTIVKQMKIIHEDGYSEDECKQYKVVVYSNTIQSIIAIIRAMGRLKIDFGEAARADDARQLFVLAGSAEEGVMTPELAGVIKRLWRDGGVQACFSRSREYQLNDSASYYLNDLDRISQSNYIPTQQDVLRTRVKTTGIVETHFTFKDLYFKMFDVGGQRSERKKWIHCFEGVTAIIFCVALSDYDLVLAEDEEMNRMHESMKLFDSICNNKWFTETSIILFLNKKDLFEEKIKRSPLTICYPEYTGSNTYEEAAAYIQCQFEDLNRRKDTKEIYTHFTCATDTKNVQFVFDAVTDVIIKNNLKECGLY
chain 2: KTGSPGSEVVTLQQFLEESNKLTSVQIKSSS
B2: Human His-Gαi3 WT [human] / Fluorescein-labelled RGS12 GoLoco peptide (residues 1,185–1,221) [modified: 5,6-carboxyfluorescein coupled to the resin-bound peptide after chain elongation; 5,6-carboxyfluorescein coupled to the resin-bound … (parent complex)
chain 1: B1 chain 1
chain 2: DEAEEFFELISKAQSNRADDQRGLLRKEDLVLPEFLR

Variants of: B1
Test: fluorescence polarisation
With chain 1 MGCTLSAEDKAAVERSKMIDRNLREDGEKAAKEVKLLLLGAGESGKSTIVKQMKIIHEDGYSEDECKQYKVVVYSNTIQSIIAIIRAMGRLKIDFGEAARADDARQLFVLAGSAEEGVMTPELAGVIKRLWRDGGVQACFSRSREYQLNDSASYYLNDLDRISQSNYIPTQQDVLRTRVKTTGIVETHFTFKDLYFKMFDVGGQRSERKKWIHCFEGVTAIIFCVALSDYDLVLAEDEEMNRMHESMKLFDSICNNKFFTETSIILFLNKKDLFEEKIKRSPLTICYPEYTGSNTYEEAAAYIQCQFEDLNRRKDTKEIYTHFTCATDTKNVQFVFDAVTDVIIKNNLKECGLY [chain 1 W258F] the Kd was 1820 nM. chain 1 MGCTLSAEDKAAVERSKMIDRNLREDGEKAAKEVKLLLLGAGESGKSTIVKQMKIIHEDGYSEDECKQYKVVVYSNTIQSIIAIIRAMGRLKIDFGEAARADDARQLFVLAGSAEEGVMTPELAGVIKRLWRDGGVQACFSRSREYQLNDSASYYLNDLDRISQSNYIPTQQDVLRTRVKTTGIVETHFTFKDLYFKMFDVGGQRSERKKWIHCFEGVTAIIFCVALSDYDLVLAEDEEMNRMHESMKLFDSICNNKWATETSIILFLNKKDLFEEKIKRSPLTICYPEYTGSNTYEEAAAYIQCQFEDLNRRKDTKEIYTHFTCATDTKNVQFVFDAVTDVIIKNNLKECGLY [chain 1 F259A] was tested, and the Kd was 1260 nM. chain 1 MGCTLSAEDKAAVERSKMIDRNLREDGEKAAKEVKALLLGAGESGKSTIVKQMKIIHEDGYSEDECKQYKVVVYSNTIQSIIAIIRAMGRLKIDFGEAARADDARQLFVLAGSAEEGVMTPELAGVIKRLWRDGGVQACFSRSREYQLNDSASYYLNDLDRISQSNYIPTQQDVLRTRVKTTGIVETHFTFKDLYFKMFDVGGQRSERKKWIHCFEGVTAIIFCVALSDYDLVLAEDEEMNRMHESMKLFDSICNNKWFTETSIILFLNKKDLFEEKIKRSPLTICYPEYTGSNTYEEAAAYIQCQFEDLNRRKDTKEIYTHFTCATDTKNVQFVFDAVTDVIIKNNLKECGLY [chain 1 L36A] showed a Kd of 706 nM. For chain 1 MGCTLSAEDKAAVERSKMIDRNLREDGEKAAKEVKLLLAGAGESGKSTIVKQMKIIHEDGYSEDECKQYKVVVYSNTIQSIIAIIRAMGRLKIDFGEAARADDARQLFVLAGSAEEGVMTPELAGVIKRLWRDGGVQACFSRSREYQLNDSASYYLNDLDRISQSNYIPTQQDVLRTRVKTTGIVETHFTFKDLYFKMFDVGGQRSERKKWIHCFEGVTAIIFCVALSDYDLVLAEDEEMNRMHESMKLFDSICNNKWFTETSIILFLNKKDLFEEKIKRSPLTICYPEYTGSNTYEEAAAYIQCQFEDLNRRKDTKEIYTHFTCATDTKNVQFVFDAVTDVIIKNNLKECGLY [chain 1 L39A], the Kd was 3080 nM. chain 1 MGCTLSAEDKAAVERSKMIDRNLREDGEKAAKEVKLLLLGAGESGKSTIVKQMKIIHEDGYSEDECKQYKVVVYSNTIQSIIAIIRAMGRLKIDFGEAARADDARQLFVLAGSAEEGVMTPELAGVIKRLWRDGGVQACFSRSREYQLNDSASYYLNDLDRISQSNYIPTQQDVLRTRVKTTGIVETHFTFKDLYFKMFDVGGQRSERKKWIHCFEGATAIIFCVALSDYDLVLAEDEEMNRMHESMKLFDSICNNKWFTETSIILFLNKKDLFEEKIKRSPLTICYPEYTGSNTYEEAAAYIQCQFEDLNRRKDTKEIYTHFTCATDTKNVQFVFDAVTDVIIKNNLKECGLY [chain 1 V218A] gave a Kd of 362 nM. chain 1 MGCTLSAEDKAAVERSKMIDRNLREDGEKAAKEVKLLLLGAGESGKSTIVKQMKIIHEDGYSEDECKQYKVVVYSNTIQSIIAIIRAMGRLKIDFGEAARADDARQLFVLAGSAEEGVMTPELAGVIKRLWRDGGVQACFSRSREYQLNDSASYYLNDLDRISQSNYIPTQQDVLRTRVKTTGIVETHFTFKDLYFKMFDVGGQRSERKKWIHCFEGVTAIIFCVALSDYDLVLAEDEEMNRMHESMKLFDAICNNKWFTETSIILFLNKKDLFEEKIKRSPLTICYPEYTGSNTYEEAAAYIQCQFEDLNRRKDTKEIYTHFTCATDTKNVQFVFDAVTDVIIKNNLKECGLY [chain 1 S252A] showed a Kd of 243 nM. chain 1 MGCTLSAEDKAAVERSKMIDRNLREDGEKAAKEVKLLLLGAGESGKSTIVKQMKIIHEDGYSEDECKQYKVVVYSNTIQSIIAIIRAMGRLKIDFGEAARADDARQLFVLAGSAEEGVMTPELAGVIKRLWRDGGVQACFSRSREYQLNDSASYYLNDLDRISQSNYIPTQQDVLRTRVKTTGAVETHFTFKDLYFKMFDVGGQRSERKKWIHCFEGVTAIIFCVALSDYDLVLAEDEEMNRMHESMKLFDSICNNKWFTETSIILFLNKKDLFEEKIKRSPLTICYPEYTGSNTYEEAAAYIQCQFEDLNRRKDTKEIYTHFTCATDTKNVQFVFDAVTDVIIKNNLKECGLY [chain 1 I184A] gave a Kd of 1910 nM. In the case of chain 1 MGCTLSAEDKAAVERSKMIDRNLREDGEKAAKEVKLLLLGAGESGKSTIVKQMKIIHEDGYSEDECKQYKVVVYSNTIQSIIAIIRAMGRLKIDFGEAARADDARQLFVLAGSAEEGVMTPELAGVIKRLWRDGGVQACFSRSREYQLNDSASYYLNDLDRISQSNYIPTQQDVLRTRVKTTGIVETHFTFKDLYFKMFDVGGQRSERKKWIHCFEGVTAIIFCVALSDYDLVLAEDEEMNRMHESMKLFDSICNNAWFTETSIILFLNKKDLFEEKIKRSPLTICYPEYTGSNTYEEAAAYIQCQFEDLNRRKDTKEIYTHFTCATDTKNVQFVFDAVTDVIIKNNLKECGLY [chain 1 K257A], the Kd is reported as 870 nM. For chain 1 MGCTLSAEDKAAVERSKMIDRNLREDGEKAAKEVKLALLGAGESGKSTIVKQMKIIHEDGYSEDECKQYKVVVYSNTIQSIIAIIRAMGRLKIDFGEAARADDARQLFVLAGSAEEGVMTPELAGVIKRLWRDGGVQACFSRSREYQLNDSASYYLNDLDRISQSNYIPTQQDVLRTRVKTTGIVETHFTFKDLYFKMFDVGGQRSERKKWIHCFEGVTAIIFCVALSDYDLVLAEDEEMNRMHESMKLFDSICNNKWFTETSIILFLNKKDLFEEKIKRSPLTICYPEYTGSNTYEEAAAYIQCQFEDLNRRKDTKEIYTHFTCATDTKNVQFVFDAVTDVIIKNNLKECGLY [chain 1 L37A], the Kd was 478 nM.

Variants of: B1
Test: fluorescence polarisation
Remark: another data set of the same source
chain 1 MGCTLSAEDKAAVERSKMIDRNLREDGEKAAKEVKLLLLGAGESGKSTIVKQMKIIHEDGYSEDECKQYKVVVYSNTIQSIIAIIRAMGRLKIDFGEAARADDARQLFVLAGSAEEGVMTPELAGVIKRLWRDGGVQACFSRSREYQLNDSASYYLNDLDRISQSNYIPTQQDVLRTRVKTTGIVETHFTFKDLYFKMFDVGGQRSERKKWIHCFEGVTAIIFCVALSDYDLVLAEDEEMNRMHESMKLFDSICNNKWFTETSIILFLNKKDLFEEKIKRSPLTICYPEYTGSNTYEEAAAYIQCQFEDLNRRKDTWEIYTHFTCATDTKNVQFVFDAVTDVIIKNNLKECGLY [chain 1 K317W] showed a Kd of 510 nM. chain 1 MGCTLSAEDKAAVERSKMIDRNLREDGEKAAKEVKLLLLGAGESGKSTIVKQMKIIHEDGYSEDECKQYKVVVYSNTIQSIIAIIRAMGRLKIDFGEAARADDARQLFVLAGSAEEGVMTPELAGVIKRLWRDGGVQACFSRSREYQLNDSASYYLNDLDRISQSNYIPTQQDVLRTRVKTTGIVETHFTFKDLYFKMFDVGGQRSERKKWIHCFEGVTAIIFCVALSDYDLVLAEDEEMNRMHESMKLFDSICNNKWFTETSIILFLNKKDLFEEKIKRSPLTICYPEYTGSNTYEEAAAYIQCQFEDLNRRKDTAEIYTHFTCATDTKNVQFVFDAVTDVIIKNNLKECGLY [chain 1 K317A] was tested, and the Kd was 590 nM. In the case of chain 1 MGCTLSAEDKAAVERSKMIDRNLREDGEKAAKEVKLLLLGAGESGKSTIVKQMKIIHEDGYSEDECKQYKVVVYSNTIQSIIAIIRAMGRLKIDFGEAARADDARQLFVLAGSAEEGVMTPELAGVIKRLWRDGGVQACFSRSREYQLNDSASYYLNDLDRISQSNYIPTQQDVLRTRVKTTGIVETHFTFKDLYFKMFDVGGQRSERKKWIHCFEGVTAIIFCVALSDYDLVLAEDEEMNRMHESMKLFDSICNNKWFTETSIILFLNKKDLFEEKIKRSPLTICYPEYTGSNTYEEAAAYIQCQFEDLNRAKDTKEIYTHFTCATDTKNVQFVFDAVTDVIIKNNLKECGLY [chain 1 R313A], the Kd is reported as 800 nM.

Variants of: B2
Test: fluorescence polarisation
Variant chain 1 MGCTLSAEDKAAVERSKMIDRNLREDGEKAAKEVKLLLLGAGESGKSTIVKQMKIIHEDGYSEDECKQYKVVVYSNTIQSIIAIIRAMGRLKIDFGEAARADDARQLFVLAGSAEEGVMTPELAGVIKRLWRDGGVQACFSRSREYQLNDSASYYLNDLDRISQSNYIPTQQDVLRTRVKTTGIVETHFTFKDLYFKMFDVGGQRSERKKWIHCFEGVTAIIFCVALSDYDLVLAEDEEMNRMHESMKLFDSICNEKWFTETSIILFLNKKDLFEEKIKRSPLTICYPEYTGSNTYEEAAAYIQCQFEDLNRRKDTKEIYTHFTCATDTKNVQFVFDAVTDVIIKNNLKECGLY [chain 1 N256E] has a Kd of 314 nM. chain 1 MGCTLSAEDKAAVERSKMIDRNLREDGEKAAKEVKLLLLGAGESGKSTIVKQMKIIHEDGYSEDECKQYKVVVYSNTIQSIIAIIRAMGRLKIDFGEAARADDARQLFVLAGSAEEGVMTPELAGVIKRLWRDGGVQACFSRSREYQLNDSASYYLNDLDRISQSNYIPTQQDVLRTRVKTTGIVETHFTFKDLYFKMFDVGGQRSERKKWIHCFEGATAIIFCVALSDYDLVLAEDEEMNRMHESMKLFDSICNNKWFTETSIILFLNKKDLFEEKIKRSPLTICYPEYTGSNTYEEAAAYIQCQFEDLNRRKDTKEIYTHFTCATDTKNVQFVFDAVTDVIIKNNLKECGLY [chain 1 V218A] gave a Kd of 104 nM. chain 1 MGCTLSAEDKAAVERSKMIDRNLREDGEKAAKEVKLLLLGAGESGKSTIVKQMKIIHEDGYSEDECKQYKVVVYSNTIQSIIAIIRAMGRLKIDFGEAARADDARQLFVLAGSAEEGVMTPELAGVIKRLWRDGGVQACFSRSREYQLNDSASYYLNDLDRISQSNYIPTQQDVLRTRVKTTGIVETHFTFKDLYFKMFDVGGQRSERKKWIHCFEGVTAIIFCVALSDYDLVLAEDEEMNRMHESMKLFDSICNNKWATETSIILFLNKKDLFEEKIKRSPLTICYPEYTGSNTYEEAAAYIQCQFEDLNRRKDTKEIYTHFTCATDTKNVQFVFDAVTDVIIKNNLKECGLY [chain 1 F259A] showed a Kd of 187 nM. Variant chain 1 MGCTLSAEDKAAVERSKMIDRNLREDGEKAAKEVALLLLGAGESGKSTIVKQMKIIHEDGYSEDECKQYKVVVYSNTIQSIIAIIRAMGRLKIDFGEAARADDARQLFVLAGSAEEGVMTPELAGVIKRLWRDGGVQACFSRSREYQLNDSASYYLNDLDRISQSNYIPTQQDVLRTRVKTTGIVETHFTFKDLYFKMFDVGGQRSERKKWIHCFEGVTAIIFCVALSDYDLVLAEDEEMNRMHESMKLFDSICNNKWFTETSIILFLNKKDLFEEKIKRSPLTICYPEYTGSNTYEEAAAYIQCQFEDLNRRKDTKEIYTHFTCATDTKNVQFVFDAVTDVIIKNNLKECGLY [chain 1 K35A] has a Kd of 152 nM.
